Test results from publication PMC10140165, “Cryo-EM reveals the membrane-binding phenomenon of EspB, a virulence factor of the mycobacterial type VII secretion system” (The Journal of Biological Chemistry, 2023).
Where “and” joins values, the source holds several entries; their conditions need not be identical. Identical values can stand only once.

Target: the molecule itself
Experiment: cryo-EM 2D class averages

B1: EspB_(1–332) (domain or fragment)
chain: MTQSQTVTVDQQEILNRANEVEAPMADPPTDVPITPCELTAAKNAAQQLVLSADNMREYLAAGAKERQRLATSLRNAAKAYGEVDEEAATALDNDGEGTVQAESAGAVGGDSSAELTDTPRVATAGEPNFMDLKEAARKLETGDQGASLAHFADGWNTFNLTLQGDVKRFRGFDNWEGDAATACEASLDQQRQWILHMAKLSAAMAKQAQYVAQLHVWARREHPTYEDIVGLERLYAENPSARDQILPVYAEYQQRSEKVLTEYNNKAALEPVNPPKPPPAIKIDPPPPPQEQGLIPGFLMPPSDGSGVTPGTGMPAAPMVPPTGSPGGGLP
For B1, the “stoichiometry N” value was 7 and 6.
